From patent publication US20240116997A1

Molecular target: His-tagged human IL-18BP (human) (UniProt O95998)
Assay: AlphaLISA of free IL-18BP after incubation with IL-18 dilutions

His-tagged human IL-18BP (human), sequence (O95998 31-194): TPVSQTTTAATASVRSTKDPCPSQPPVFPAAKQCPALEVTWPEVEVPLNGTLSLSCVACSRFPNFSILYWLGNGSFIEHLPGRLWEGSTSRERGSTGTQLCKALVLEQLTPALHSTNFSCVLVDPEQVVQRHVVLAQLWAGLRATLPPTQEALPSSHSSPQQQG
IL-18 WT (native sequence, SEQ ID NO: 1), sequence (Q14116 37-193): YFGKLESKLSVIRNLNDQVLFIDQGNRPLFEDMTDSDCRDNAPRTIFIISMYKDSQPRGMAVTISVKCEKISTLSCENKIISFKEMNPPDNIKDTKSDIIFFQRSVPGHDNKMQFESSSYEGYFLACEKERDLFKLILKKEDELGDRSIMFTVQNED

Row | Substance | Kd [nM]
1 | C142 (Y1M, E6K, V11I, C38A, K53A, T63A, C76A, C127A) (from UniProt Q14116 38-193) (ligand) | 2.25
2 | C143 (V11I, C38A, K53A, C76A, C127A) (from UniProt Q14116 37-193) (ligand) | 8.86
3 | C144 (V11I, C38A, K53A, T63A, C76A, C127A) (from UniProt Q14116 37-193) (ligand) | 0.66
4 | C145 (V11I, C38A, K53A, S55A, C76A, C127A) (from UniProt Q14116 37-193) (ligand) | 9.74
5 | C146 (SEQ ID NO: 79; V11I, C38A, M51G, K53A, C76A, C127A) (from UniProt Q14116 37-193) (ligand) | 373
6 | C147 (V11I, C38A, K53A, D54A, C76A, C127A) (from UniProt Q14116 37-193) (ligand) | 25.8
7 | C148 (F2A, V11I, C38A, K53A, C76A, C127A) (from UniProt Q14116 37-193) (ligand) | 57.2
8 | C149 (V11I, E31A, C38A, K53A, C76A, C127A) (from UniProt Q14116 37-193) (ligand) | 0.64
9 | C150 (V11I, T34A, C38A, K53A, C76A, C127A) (from UniProt Q14116 37-193) (ligand) | 1.24
10 | C151 (V11I, D35A, C38A, K53A, C76A, C127A) (from UniProt Q14116 37-193) (ligand) | 2.88
11 | C152 (V11I, S36A, C38A, K53A, C76A, C127A) (from UniProt Q14116 37-193) (ligand) | 1.12
12 | C153 (V11I, D37A, C38A, K53A, C76A, C127A) (from UniProt Q14116 37-193) (ligand) | 4.55
13 | C154 (V11I, E31A, D37A, C38A, K53A, C76A, C127A) (from UniProt Q14116 37-193) (ligand) | 2.12
14 | C155 (V11I, C38A, D40A, K53A, C76A, C127A) (from UniProt Q14116 37-193) (ligand) | 0.74
15 | C156 (V11I, C38A, N41A, K53A, C76A, C127A) (from UniProt Q14116 37-193) (ligand) | 18.5
16 | C157 (V11I, C38A, K53A, C76A, C127A, D132A) (from UniProt Q14116 37-193) (ligand) | 13.7
17 | C158 (V11I, C38A, K53A, C76A, G108A, C127A) (from UniProt Q14116 37-193) (ligand) | 1.24
18 | C159 (V11I, C38A, K53A, C76A, H109A, C127A) (from UniProt Q14116 37-193) (ligand) | 0.55
19 | C160 (V11I, C38A, K53A, C76A, D110A, C127A) (from UniProt Q14116 37-193) (ligand) | 0.71
20 | C161 (K8R, V11I, C38A, C76A, Q103E, C127A) (from UniProt Q14116 37-193) (ligand) | 0.06
21 | C162 (K8E, V11I, C38A, C76A, Q103R, C127A) (from UniProt Q14116 37-193) (ligand) | 0.85
22 | C163 (V11I, C38A, C76A, Q103K, C127A) (from UniProt Q14116 37-193) (ligand) | 0.05
23 | C164 (V11I, C38A, S55H, C76A, C127A) (from UniProt Q14116 37-193) (ligand) | 0.08
24 | C165 (V11I, C38A, S55R, C76A, C127A) (from UniProt Q14116 37-193) (ligand) | 0.15
25 | C166 (V11I, C38A, S55T, C76A, C127A) (from UniProt Q14116 37-193) (ligand) | 0.02

Row | Substance | Kd [nM]
26 | C167 (V11I, C38A, C76A, S105I, C127A) (from UniProt Q14116 37-193) (ligand) | 0.04
27 | C168 (V11I, C38A, C76A, S105K, C127A) (from UniProt Q14116 37-193) (ligand) | 0.05
28 | C174 (K8L, E6K, V11I, C38A, K53A, T63A, C76A, C127A) (from UniProt Q14116 37-193) (ligand) | 0.14
29 | C176 (E6K, V11I, C38A, I49M, K53A, T63A, C76A, C127A) (from UniProt Q14116 37-193) (ligand) | 25.8
30 | C184 (E6R, V11I, C38A, K53A, T63A, C76A, C127A) (from UniProt Q14116 37-193) (ligand) | 5.46
31 | IL-18 WT (native sequence, SEQ ID NO: 1) (from UniProt Q14116 37-193) (ligand) | 0.67
32 | IL-18 polypeptide SEQ ID NO: 35 (Y01G, F02A, E06K, M51G, K53A, D54A, S55A, T63A) (from UniProt Q14116 37-193) (ligand) | 969
33 | IL-18 polypeptide SEQ ID NO: 36 (K53A) (from UniProt Q14116 37-193) (ligand) | 514
34 | IL-18 polypeptide SEQ ID NO: 37 (S55A) (from UniProt Q14116 37-193) (ligand) | 10.7
35 | IL-18 polypeptide SEQ ID NO: 38 (E06K) (from UniProt Q14116 37-193) (ligand) | 0.13
36 | IL-18 polypeptide SEQ ID NO: 39 (E06K, K53A) (from UniProt Q14116 37-193) (ligand) | 130
37 | IL-18 polypeptide SEQ ID NO: 40 (E06K, S55A) (from UniProt Q14116 37-193) (ligand) | 12.3
38 | IL-18 polypeptide SEQ ID NO: 41 (K53A, S55A) (from UniProt Q14116 37-193) (ligand) | 500
39 | IL-18 polypeptide SEQ ID NO: 42 (E06K, K53A, S55A, T63A) (from UniProt Q14116 37-193) (ligand) | 822
40 | IL-18 polypeptide SEQ ID NO: 47 (C38S, C68S, C76S, C127S) (from UniProt Q14116 37-193) (ligand) | 0.03
41 | IL-18 polypeptide SEQ ID NO: 48 (C38S, C68S, C76S, C127S, K70C) (from UniProt Q14116 37-193) (ligand) | 0.21
42 | IL-18 polypeptide SEQ ID NO: 50 (E06K, K53A, T63A) (from UniProt Q14116 37-193) (ligand) | 340
43 | IL-18 polypeptide SEQ ID NO: 51 (T63A) (from UniProt Q14116 37-193) (ligand) | 2.59
44 | IL-18 polypeptide SEQ ID NO: 52 (E06K, T63A) (from UniProt Q14116 37-193) (ligand) | 0.83
45 | IL-18 polypeptide SEQ ID NO: 53 (K53A, T63A) (from UniProt Q14116 37-193) (ligand) | 198
46 | IL-18 polypeptide SEQ ID NO: 54 (E06K, K53A, C38S, C68S, C76S, C127S, K70C) (from UniProt Q14116 37-193) (ligand) | 446
47 | IL-18 polypeptide SEQ ID NO: 55 (K53A, T63A, C38S, C68S, C76S, C127S, K70C) (from UniProt Q14116 37-193) (ligand) | 913
48 | IL-18 polypeptide SEQ ID NO: 56 (E6K, K53A, C38S, C76S, C127S) (from UniProt Q14116 37-193) (ligand) | 436
49 | IL-18 polypeptide SEQ ID NO: 57 (E6K, C38S, K53A) (from UniProt Q14116 37-193) (ligand) | 50.2
